{"source": "paper PMC2570489", "about": "“The Co-Operonic PE25/PPE41 Protein Complex of Mycobacterium tuberculosis Elicits Increased Humoral and Cell Mediated Immune Response” (PLoS ONE, 2008)", "molecular_target": "T1, PPE41 protein of Mycobacterium tuberculosis (Mycobacterium tuberculosis, UniProt Q79FE1 1-194)", "T1 construct": "also called Rv2430c; rRv2431c (as printed in the methods)", "T1 sequence": "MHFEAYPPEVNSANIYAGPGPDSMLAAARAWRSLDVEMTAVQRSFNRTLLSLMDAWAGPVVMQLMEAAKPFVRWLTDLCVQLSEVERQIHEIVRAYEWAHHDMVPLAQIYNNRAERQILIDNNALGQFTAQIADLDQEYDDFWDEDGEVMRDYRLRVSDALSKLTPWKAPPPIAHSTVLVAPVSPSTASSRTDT", "assay": "co-purification by Cobalt affinity chromatography", "conditions": "partners not purified"}
{"binder": "PE25 protein of Mycobacterium tuberculosis (natural protein, also called Rv2431c; rRv2430c (as printed in the methods)) MSFVITNPEALTVAATEVRRIRDRAIQSDAQVAPMTTAVRPPAADLVSEKAATFLVEYARKYRQTIAAAAVVLEEFAHALTTGADKYATAEADNIKTFS", "values": [{"measurement": "binding result", "value": "binds"}]}
